Publication PMC10300122, “K235 acetylation couples with PSPC1 to regulate the m^6A demethylation activity of ALKBH5 and tumorigenesis” (Nature Communications, 2023)

T1: recombinant PSPC1-His (UniProt Q8WXF1 1-523)
T1 construct: paraspeckle component 1 (PSPC1) cloned into the pET 26b vector; source: E. coli BL21 (DE3), purified (His-tag Protein Purification Kit)
T1 sequence (looked up): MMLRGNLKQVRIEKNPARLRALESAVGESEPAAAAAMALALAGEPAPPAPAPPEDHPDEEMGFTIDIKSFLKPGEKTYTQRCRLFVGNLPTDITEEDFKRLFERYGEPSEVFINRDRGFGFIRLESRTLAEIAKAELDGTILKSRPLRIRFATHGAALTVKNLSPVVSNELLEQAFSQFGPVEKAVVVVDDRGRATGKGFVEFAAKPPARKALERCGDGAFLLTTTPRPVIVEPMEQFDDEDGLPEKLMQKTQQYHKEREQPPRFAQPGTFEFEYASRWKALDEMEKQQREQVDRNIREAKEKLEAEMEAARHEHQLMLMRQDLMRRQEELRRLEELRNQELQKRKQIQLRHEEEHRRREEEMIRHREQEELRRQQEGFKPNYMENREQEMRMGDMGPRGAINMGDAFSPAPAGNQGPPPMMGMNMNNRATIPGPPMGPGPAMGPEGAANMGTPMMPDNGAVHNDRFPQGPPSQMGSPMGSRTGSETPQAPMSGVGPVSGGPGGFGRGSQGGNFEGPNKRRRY


Molecular target: T1, recombinant PSPC1-His
Assay: pull-down; GST pull-down: GST-ALKBH5 on glutathione beads (untreated or K235-acetylated by immunopurified KAT8) incubated with PSPC1-His at 4 °C for 1 h; washed with 20 mM HEPES pH 7.6, 0.1 M KCl, 0.1 μM EDTA, 10% glycerol, 0.02% NP-40; western blot
Settings: both partners purified

Binder | binding result
recombinant GST-ALKBH5 (enzyme, UniProt Q6P6C2 1-394, looked up, AlkB homolog 5 (ALKBH5) cloned into the pGEX vector; also called recombinant ALKBH5; source: E. coli BL21 (DE3), purified (Glutathione Sepharose)) MAAASGYTDLREKLKSMTSRDNYKAGSREAAAAAAAAVAAAAAAAAAAEPYPVSGAKRKYQEDSDPERSDYEEQQLQKEEEARKVKSGIRQMRLFSQDECAKIEARIDEVVSRAEKGLYNEHTVDRAPLRNKYFFGEGYTYGAQLQKRGPGQERLYPPGDVDEIPEWVHQLVIQKLVEHRVIPEGFVNSAVINDYQPGGCIVSHVDPIHIFERPIVSVSFFSDSALCFGCKFQFKPIRVSEPVLSLPVRRGSVTVLSGYAADEITHCIRPQDIKERRAVIILRKTRLDAPRLETKSLSSSVLPPSYASDRLSGNNRDPALKPKRSHRKADPDAAHRPRILEMDKEENRRSVLLPTHRRRGSFSSENYWRKSYESSEDCSEAAGSPARKVKMRRH | binds
recombinant K235-acetylated GST-ALKBH5 (enzyme, UniProt Q6P6C2 1-394, looked up, acetyl-lysine at 235, AlkB homolog 5 (ALKBH5) cloned into the pGEX vector; The same construct as m6 after treatment with KAT8; source: E. coli BL21 (DE3), purified (Glutathione Sepharose), then K235-acetylated by immunopurified KAT8) MAAASGYTDLREKLKSMTSRDNYKAGSREAAAAAAAAVAAAAAAAAAAEPYPVSGAKRKYQEDSDPERSDYEEQQLQKEEEARKVKSGIRQMRLFSQDECAKIEARIDEVVSRAEKGLYNEHTVDRAPLRNKYFFGEGYTYGAQLQKRGPGQERLYPPGDVDEIPEWVHQLVIQKLVEHRVIPEGFVNSAVINDYQPGGCIVSHVDPIHIFERPIVSVSFFSDSALCFGCKFQFKPIRVSEPVLSLPVRRGSVTVLSGYAADEITHCIRPQDIKERRAVIILRKTRLDAPRLETKSLSSSVLPPSYASDRLSGNNRDPALKPKRSHRKADPDAAHRPRILEMDKEENRRSVLLPTHRRRGSFSSENYWRKSYESSEDCSEAAGSPARKVKMRRH | binds
